Two molecules from publication doi:10.1101/569459 (bioRxiv, 2019) can be followed below.

The assay has as its target MBP::PP1β (UniProt P62140 1-327). Kind of assay: pull-down.

Changes are numbered by the printed parent chain.

Chain of MBP::PP1β (P62140 whole entry): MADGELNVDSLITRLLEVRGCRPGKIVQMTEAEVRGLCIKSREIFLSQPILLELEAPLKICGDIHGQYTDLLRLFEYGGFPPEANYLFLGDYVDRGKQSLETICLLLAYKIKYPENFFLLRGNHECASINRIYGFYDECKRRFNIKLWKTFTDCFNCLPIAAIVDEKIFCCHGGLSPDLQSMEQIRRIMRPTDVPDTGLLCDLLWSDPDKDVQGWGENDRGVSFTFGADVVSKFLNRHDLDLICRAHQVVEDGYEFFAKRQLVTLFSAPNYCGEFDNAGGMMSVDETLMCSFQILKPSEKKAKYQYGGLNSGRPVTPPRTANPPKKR

B1: GST::MKLP1_(620-858) (wild type) (domain or fragment, UniProt Q02241-2 620-856, looked up)
chain: ETTMKWEKECERRVAAKQLEMQNKLWVKDEKLKQLKAIVTEPKTEKPERPSRERDREKVTQRSVSPSPVPLLFQPDQNAPPIRLRHRRSRSAGDRWVDHKPASNMQTETVMQPHVPHAITVSVANEKALAKCEKYMLTHQELASDGEIETKLIKGDIYKTRGGGQSVQFTDIETLKQESPNGSRKRRSSTVAPAQPDGAESEWTDVETRCSVAVEMRAGSQLGPGYQHHAQPKRKKP
As for B1, the binding result is reported as “binds”.

B2: GST::MKLP1_(620-858) AQA mutant (domain or fragment, UniProt Q02241-2 620-856, looked up)
chain: B1 chain with V167A, F169A
Regarding B2, the binding result was “binds”.
